This note sets out measurements from US20140363428A1 (Chugai, published 2014).

Sequences and labels used below:
B1: F1603 (antibody)
heavy: QVQLQESGPGLVKPSETLSLTCAVSGHSISHDHAWSWVRQPPGEGLEWIGFISYSGITNYNPSLQGRVTISRDNSKNTLYLQMNSLRAEDTAVYYCARSLARTTAMDYWGEGTLVTVSSASTKGPSVFPLAPSSKSTSGGTAALGCLVKDYFPEPVTVSWNSGALTSGVHTFPAVLQSSGLYSLSSVVTVPSSSLGTQTYICNVNHKPSNTKVDKKVEPKSCDKTHTCPPCPAPELRGGPKVFLFPPKPKDTLYITLEPEVTCVVVDVSHEDPEVKFNWYVDGVEVHNAKTKPREEQYNSTYRVVSVLTVLHQDWLNGKEYKCKVSNKALPAPIEKTISKAKGQPREPQVYTLPPSRDELTKNQVSLTCLVKGFYPSDIAVEWESNGQPENNYKTTPPVLDSDGSFFLYSKLTVDKSRWQQGNVFSCSVMHEALDYHVTKKELSLSP
light: DIQMTQSPSSLSASVGDSVTITCQASTDISSHLNWYQQKPGKAPELLIYYGSHLLSGVPSRFSGSGSGTDFTFTISSLEAEDAATYYCGQGNRLPYTFGQGTKVEIERTVAAPSVFIFPPSDEQLKSGTASVVCLLNNFYPREAKVQWKVDNALQSGNSQESVTEQDSKDSTYSLSSTLTLSKADYEKHKVYACEVTHQGLSSPVTKSFNRGEC
B2: F1599 (antibody)
chain 1: QVQLQESGPGLVKPSETLSLTCAVSGHSISHDHAWSWVRQPPGEGLEWIGFISYSGITNYNPSLQGRVTISRDNSKNTLYLQMNSLRAEDTAVYYCARSLARTTAMDYWGEGTLVTVSSASTKGPSVFPLAPSSKSTSGGTAALGCLVKDYFPEPVTVSWNSGALTSGVHTFPAVLQSSGLYSLSSVVTVPSSSLGTQTYICNVNHKPSNTKVDKKVEPKSCDKTHTCPPCPAPELRGGPKVFLFPPKPKDTLYITREPEVTCVVVDVSHEDPEVKFNWYVDGVEVHNAKTKPREEQYNSTYRVVSVLTVLHQDWLNGKEYKCKVSNKALPAPIEKTISKAKGQPREPQVYTLPPSRDELTKNQVSLTCLVKGFYPSDIAVEWESNGQPENNYKTTPPVLDSDGSFFLYSKLTVDKSRWQQGNVFSCSVMHEALDYHVTKKDLSLSP
chain 2: DIQMTQSPSSLSASVGDSVTITCQASTDISSHLNWYQQKPGKAPELLIYYGSHLLSGVPSRFSGSGSGTDFTFTISSLEAEDAATYYCGQGNRLPYTFGQGTKVEIERTVAAPSVFIFPPSDEQLKSGTASVVCLLNNFYPREAKVQWKVDNALQSGNSQESVTEQDSKDSTYSLSSTLTLSKADYEKHKVYACEVTHQGLSSPVTKSFNRGEC
B3: F1604 (antibody)
heavy: QVQLQESGPGLVKPSETLSLTCAVSGHSISHDHAWSWVRQPPGEGLEWIGFISYSGITNYNPSLQGRVTISRDNSKNTLYLQMNSLRAEDTAVYYCARSLARTTAMDYWGEGTLVTVSSASTKGPSVFPLAPSSKSTSGGTAALGCLVKDYFPEPVTVSWNSGALTSGVHTFPAVLQSSGLYSLSSVVTVPSSSLGTQTYICNVNHKPSNTKVDKKVEPKSCDKTHTCPPCPAPELRGGPKVFLFPPKPKDTLYITLEPEVTCVVVDVSHEDPEVKFNWYVDGVEVHNAKTKPREEQYNSTYRVVSVLTVLHQDWLNGKEYKCKVSNKALPAPIEKTISKAKGQPREPQVYTLPPSRDELTKNQVSLTCLVKGFYPSDIAVEWESNGQPENNYKTTPPVLDSDGSFFLYSKLTVDKSRWQQGNVFSCSVMHEALDYHVTKKDLSLSP
light: DIQMTQSPSSLSASVGDSVTITCQASTDISSHLNWYQQKPGKAPELLIYYGSHLLSGVPSRFSGSGSGTDFTFTISSLEAEDAATYYCGQGNRLPYTFGQGTKVEIERTVAAPSVFIFPPSDEQLKSGTASVVCLLNNFYPREAKVQWKVDNALQSGNSQESVTEQDSKDSTYSLSSTLTLSKADYEKHKVYACEVTHQGLSSPVTKSFNRGEC
B4: F1655 (antibody)
heavy: QVQLQESGPGLVKPSETLSLTCAVSGHSISHDHAWSWVRQPPGEGLEWIGFISYSGITNYNPSLQGRVTISRDNSKNTLYLQMNSLRAEDTAVYYCARSLARTTAMDYWGEGTLVTVSSASTKGPSVFPLAPSSKSTSGGTAALGCLVKDYFPEPVTVSWNSGALTSGVHTFPAVLQSSGLYSLSSVVTVPSSSLGTQTYICNVNHKPSNTKVDKKVEPKSCDKTHTCPPCPAPELRGGPKVFLFPPKPKDTLYITREPEVTCVVVDVSHEDPEVKFNWYVDGVEVHNAKTKPREEQYNSTYRVVSVLTVLHQDWLNGKEYKCKVSNKALPAPIEKTISKAKGQPREPQVYTLPPSRDELTKNQVSLTCLVKGFYPSDIAVEWESNGQPENNYKTTPPVLDSDGSFFLYSKLTVDKSRWQQGNVFSCSVMHEALSYHVTKKDLSLSP
light: DIQMTQSPSSLSASVGDSVTITCQASTDISSHLNWYQQKPGKAPELLIYYGSHLLSGVPSRFSGSGSGTDFTFTISSLEAEDAATYYCGQGNRLPYTFGQGTKVEIERTVAAPSVFIFPPSDEQLKSGTASVVCLLNNFYPREAKVQWKVDNALQSGNSQESVTEQDSKDSTYSLSSTLTLSKADYEKHKVYACEVTHQGLSSPVTKSFNRGEC
B5: F1654 (antibody)
heavy: QVQLQESGPGLVKPSETLSLTCAVSGHSISHDHAWSWVRQPPGEGLEWIGFISYSGITNYNPSLQGRVTISRDNSKNTLYLQMNSLRAEDTAVYYCARSLARTTAMDYWGEGTLVTVSSASTKGPSVFPLAPSSKSTSGGTAALGCLVKDYFPEPVTVSWNSGALTSGVHTFPAVLQSSGLYSLSSVVTVPSSSLGTQTYICNVNHKPSNTKVDKKVEPKSCDKTHTCPPCPAPELRGGPKVFLFPPKPKDTLYITREPEVTCVVVDVSHEDPEVKFNWYVDGVEVHNAKTKPREEQYNSTYRVVSVLTVLHQDWLNGKEYKCKVSNKALPAPIEKTISKAKGQPREPQVYTLPPSRDELTKNQVSLTCLVKGFYPSDIAVEWESNGQPENNYKTTPPVLDSDGSFFLYSKLTVDKSRWQQGNVFSCSVMHEALSYHVTRKDLSLSP
light: DIQMTQSPSSLSASVGDSVTITCQASTDISSHLNWYQQKPGKAPELLIYYGSHLLSGVPSRFSGSGSGTDFTFTISSLEAEDAATYYCGQGNRLPYTFGQGTKVEIERTVAAPSVFIFPPSDEQLKSGTASVVCLLNNFYPREAKVQWKVDNALQSGNSQESVTEQDSKDSTYSLSSTLTLSKADYEKHKVYACEVTHQGLSSPVTKSFNRGEC
B6: F1653 (antibody)
heavy: QVQLQESGPGLVKPSETLSLTCAVSGHSISHDHAWSWVRQPPGEGLEWIGFISYSGITNYNPSLQGRVTISRDNSKNTLYLQMNSLRAEDTAVYYCARSLARTTAMDYWGEGTLVTVSSASTKGPSVFPLAPSSKSTSGGTAALGCLVKDYFPEPVTVSWNSGALTSGVHTFPAVLQSSGLYSLSSVVTVPSSSLGTQTYICNVNHKPSNTKVDKKVEPKSCDKTHTCPPCPAPELRGGPKVFLFPPKPKDTLYITREPEVTCVVVDVSHEDPEVKFNWYVDGVEVHNAKTKPREEQYNSTYRVVSVLTVLHQDWLNGKEYKCKVSNKALPAPIEKTISKAKGQPREPQVYTLPPSRDELTKNQVSLTCLVKGFYPSDIAVEWESNGQPENNYKTTPPVLDSDGSFFLYSKLTVDKSRWQQGNVFSCSVMHEALSYHVTKKELSLSP
light: DIQMTQSPSSLSASVGDSVTITCQASTDISSHLNWYQQKPGKAPELLIYYGSHLLSGVPSRFSGSGSGTDFTFTISSLEAEDAATYYCGQGNRLPYTFGQGTKVEIERTVAAPSVFIFPPSDEQLKSGTASVVCLLNNFYPREAKVQWKVDNALQSGNSQESVTEQDSKDSTYSLSSTLTLSKADYEKHKVYACEVTHQGLSSPVTKSFNRGEC

The target of the assay is T1, soluble human FcRn (human, UniProt P55899 24-297; P61769 21-119).
T1 construct: Heterodimer of alpha chain and beta2-microglobulin; also called hFcRn
T1 sequence (P55899 24-297 limits assumed, chain 1 of 2): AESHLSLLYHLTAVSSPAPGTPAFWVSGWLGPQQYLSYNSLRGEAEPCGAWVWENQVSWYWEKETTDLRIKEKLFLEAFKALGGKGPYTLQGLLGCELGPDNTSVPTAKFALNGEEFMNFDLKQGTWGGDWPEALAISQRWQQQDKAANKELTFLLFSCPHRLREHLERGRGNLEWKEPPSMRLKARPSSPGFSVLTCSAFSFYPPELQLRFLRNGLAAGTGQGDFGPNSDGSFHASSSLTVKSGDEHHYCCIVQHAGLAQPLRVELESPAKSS
T1 sequence (P61769 21-119 limits assumed, chain 2 of 2): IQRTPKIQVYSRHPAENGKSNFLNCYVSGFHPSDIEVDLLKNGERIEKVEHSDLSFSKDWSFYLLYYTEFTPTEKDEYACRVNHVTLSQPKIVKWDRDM
The experiment in a line: SPR (Biacore), pH 7.0.
One may read the Kd as the constant that tells how readily two partners part at equilibrium. B1 returned a Kd of 59 nM.

B2: binding was characterised by a dissociation constant (Kd) of 74 nM.

The molecule B3 had a Kd of 60 nM.

Consider B4, for which the Kd amounted to 44 nM.

B5 registered a Kd of 45 nM.

Take B6: the Kd is 45 nM.
